Test results published in patent US11780910 (dated 2023).

T1: human ANGPTL3 17-220 (human)
T1 chain: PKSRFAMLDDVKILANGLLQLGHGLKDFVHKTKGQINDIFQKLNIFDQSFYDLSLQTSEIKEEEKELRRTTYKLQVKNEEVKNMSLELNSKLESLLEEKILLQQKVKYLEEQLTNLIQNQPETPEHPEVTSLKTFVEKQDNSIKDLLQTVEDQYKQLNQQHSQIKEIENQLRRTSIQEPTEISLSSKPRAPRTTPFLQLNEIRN


Tests used:
[1] = biological target: T1, human ANGPTL3 17-220; assay: SPR, pH 7.4, 37C
[2] = biological target: T1, human ANGPTL3 17-220; assay: SPR, pH 6.0, 37C
[3] = biological target: T1, human ANGPTL3 17-220; assay: SPR, pH 6.0, 37C

Row | Binder | Kd [1] [nM] | binding result [2] | Kd [3] [nM]
1 | tmAb2 (antibody, V domains shown) VH: EVQLLESGGGLVQPGGSLRLSCAASDFNFRSYWMTWVRQAPGKGLEWVSSISSHSTYIYYADSVKGRFTISRDNSKNTLYLQMNSLRAEDTATYYCAREGWYDNWFDPWGQGTLVTVSS VL: EIVLTQSPGTLSLSPGERATLSCRASQNIRSPYLAWYQQKPGQAPRLLIYGVSSRAAGIPDRFSGSGSGTDFTLTISRLEPEDFAVYYCQQYDDHPYTFGQGTKLEIK | 43 | no binding | 
2 | tmAb1 (antibody, V domains shown) VH: EVQLLESGGGLVQPGGSLRLSCAASGFNFRSYWMTWVRQAPGKGLEWVSSISSHSTYIYYADSVKGRFTISRDNSKNTLYLQMNSLRAEDTATYYCAREGWYDNWFDPWGQGTLVTVSS VL: EIVLTQSPGTLSLSPGERATLSCRASQNIRSPYLAWYQQKPGQAPRLLIYGVSSRAAGIPDRFSGSGSGTDFTLTISRLEPEDFAVYYCQQYDDHPYTFGQGTKLEIK | 21 |  | 2000

Further lines, results first:

Row | Kd [1] [nM] | binding result [2] | Kd [3] [nM] | Binder
3 | 56 | no binding |  | tmAb4 (antibody, V domains shown) VH: EVQLLESGGGLVQPGGSLRLSCAASGFNFESYWMTWVRQAPGKGLEWVSSISSHSTYIYYADSVKGRFTISRDNSKNTLYLQMNSLRAEDTATYYCAREGWYDNWNDPWGQGTLVTVSS VL: EIVLTQSPGTLSLSPGERATLSCRASQNIRSPYLAWYQQKPGQAPRLLIYGVSSRAAGIPDRFSGSGSGTDFTLTISRLEPEDFAVYYCQQYDDHPYTFGQGTKLEIK
4 | 18 |  | 3000 | tmAb3 (antibody, V domains shown) VH: EVQLLESGGGLVQPGGSLRLSCAASGFNFESYWMTWVRQAPGKGLEWVSSISSHSTYIYYADSVKGRFTISRDNSKNTLYLQMNSLRAEDTATYYCAREGWYDNWFDPWGQGTLVTVSS VL: EIVLTQSPGTLSLSPGERATLSCRASQNIRSPYLAWYQQKPGQAPRLLIYGVSSRAAGIPDRFSGSGSGTDFTLTISRLEPEDFAVYYCQQYDDHPYTFGQGTKLEIK
